Laboratory results: patent publication US11897928B2, “Conjugates for delivering an anti-cancer agent to nerve cells, methods of use and methods of making thereof” (Manzanita Pharmaceuticals, Inc., priority 2018, dated 2024)

Tests used:
[1] = Intracisternal delivery of 800-rhBDNF in naïve rats (Spectralis IRAF/IR imaging, NIR microscopy and HE histopathology); type: in vivo
Procedure: A Dyomics Near InfraRed (NIR) dye 800 was conjugated to rhBDNF (800-rhBDNF) as set forth above. […] Three single doses of 800-rhBDNF were injected midline intracisternally in naïve rats (n=4; n=3 800-rhBDNF, n=1 control, unmodified dye 800 carboxylic acid form). Three test doses of 800-rhBDNF were selected: lowest (5 μL for syringe, at 0.20 concentration=1 μg study article), mid-, and highest (30 μL; upper volume constraint is 50 μL). Images at three timepoints were collected, just prior to treatment, 15 min, and 6 h using two imaging modalities in both eyes (left eye, oculus sinister, OS; right eye, oculus dexter, OD). Imaging and histopathology methods were used to detect 800-rhBDNF in the optic chiasm or optic nerve head.
Two seetings were selected on the Heidelberg Spectralis®. Infrared autofluorescence IRAF; or ICG, to detect indocyanine green, an NIR dye uses a diode laser with a wavelength of 790 nm in the NIR spectrum. A barrier filter at 830 nm separates excitation and fluorescence light and thus, IRAF/ICG detects near IR fluorescence in 800-rhBDNF. […] After dissection, tissues were cryostatted to preserve NIR 800. Two directly contiguous sets of slides were produced from two sections of optic nerve, optic chiasm from brain tissue, and optic nerve head from eyes. HE stain.
Hematoxylin and eosin (HE) stain was applied to one slide set to reveal nerve tissue. NIR microscopy. Using an Olympus IX73 inverted 2-deck microscope with motorized filter cube turret; objective turret; Proscan XYZ stage; a 75 W Xenon burner; and DP80 Dual CCD 12.7 MP camera, NIR images are acquired in two channels at 4× in the FITC channel (detects auto-fluorescence) and ICG channel. The morphology of HE stained slides to those with FITC+NIR images was compared to confirm that NIR 800 had localized to in nerve tissue.

TrkB receptor = experiment: Bioassay in RGC cultures for TrkB receptor binding; type: cell-based

B1: 800-rhBDNF: Dyomics Near InfraRed (NIR) dye 800 conjugated to rhBDNF (conjugate, UniProt P23560 19-247, looked up)
Neurotrophic factor BDNF …: APMKEANIRGQGGLAYPGVRTHGTLESVNGPKAGSRGLTSLADTFEHVIEELLDEDQKVRPNEENNKDADLYTSRVMLSSQVPLEPPLLFLLEEYKNYLDAANMSMRVRRHSDPARRGELSVCDSISEWVTAADKKTAVDMSGGTVTVLEKVPVSKGQLKQYFYETKCNPMGYTKEGCRGIDKRHWNSQCRTTQSYVRALTMDSKKRIGWRFIRIDTSCVCTLTIKRGR
modifications: Dyomics 800 NIR dye
notes: Dyomics Near InfraRed (NIR) dye 800 conjugated to rhBDNF
localized irritation in the retinas ([1]; intracisternal injection, live imaging at baseline, 15 min and 6 h): No localized irritation in the retinas was observed | distribution of midline injection (both eyes) ([1]; midline intracisternal injection, imaging in OS and OD): distributed bilaterally | transport of 800 dye from the site of injection ([1]; preliminary studies, given intracisternally): transports 800 dye away from the site of injection, via the optic chiasm, to the optic nerve head | localization of NIR 800 dye in nerve tissue (morphology of NIR microscopy compared to HE stain) ([1]; single midline intracisternal injection, histopathology after euthanasia at 6 h, optic chiasm and optic nerve head): localizes the 800 dye and moves the 800 dye away from the injection site via optic chiasm to optic nerve head | TrkB receptor binding following synthesis (TrkB receptor): TrkB receptor binding remains intact
